Patent US6518397B1, “Pharmaceuticals for modulating hormone responsiveness” (priority 1995, dated 2003)
“Also recorded” adds a separate entry of the source. Where no end group is shown, it is not given here.

Molecular target: T1, DNA binding domain of recombinant rat androgen receptor (AR) / calreticulin (p60) (Homo sapiens, UniProt P27797)
T1 construct: endogenous in cells
T1 sequence (P27797 18-417): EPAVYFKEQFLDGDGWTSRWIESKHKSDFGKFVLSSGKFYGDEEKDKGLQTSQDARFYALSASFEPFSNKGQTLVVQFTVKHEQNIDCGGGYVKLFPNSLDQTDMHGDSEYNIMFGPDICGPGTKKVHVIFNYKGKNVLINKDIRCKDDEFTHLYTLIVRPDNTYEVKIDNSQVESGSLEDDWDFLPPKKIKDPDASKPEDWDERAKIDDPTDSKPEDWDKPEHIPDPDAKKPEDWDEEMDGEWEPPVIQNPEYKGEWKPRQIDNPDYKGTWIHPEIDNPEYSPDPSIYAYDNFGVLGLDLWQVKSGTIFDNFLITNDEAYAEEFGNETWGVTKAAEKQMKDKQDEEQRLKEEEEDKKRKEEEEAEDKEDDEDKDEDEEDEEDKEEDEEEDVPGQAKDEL
Experiment: Gel mobility shift (gel retardation) assay: calreticulin (p60) inhibition of AR-ARE binding and its reversal by peptides/antibody
Details: for Effectiveness of binding to calreticulin, in words: effect of substitution in KXFFX1R sequence, band shift
Method: To determine whether p60 (calreticulin) could directly modulate the binding of nuclear hormone receptors to DNA via the KXFFX^1R [SEQ ID NO:1] sequence, the interaction of the DNA binding domain of recombinant androgen receptor with its hormone responsive element was analyzed by carrying out gel mobility shift assays.
As described in Rennie et al., 1993, DNA binding domain of recombinant rat androgen receptor was prepared as a GST-fusion protein using the pGEX-3X vector and purified by glutathione-agarose affinity chromatography. p60 (calreticulin) was purified by affinity chromatography on KLGFFKR-sepharose [SEQ ID NO:7], followed by gel electrophoresis as described in detail in Rojiani et al., 1991. […] Recombinant calreticulin (GST-fusion protein) was prepared as described by Baksh and Michalak, 1991. Gel retardation assays were carried out as described by Rennie et al., 1993. To analyze the effect of p60, or recombinant calreticulin, on receptor-DNA binding activity, the AR was pre-incubated with p60 for 30 min at 4° C. To analyze the effects of synthetic peptides, anti-calreticulin antibody, and non-immune IgG on p60 inhibition of AR-ARE binding, the peptide, antibody or IgG were pre-incubated with p60 for 30 min at 4° C. The androgen receptor preparation was then added to these mixtures and further incubated for 30 min at 4° C.
Affinity purified DNA binding domain of the recombinant rat androgen receptor (AR) was pre-incubated with or without the indicated concentrations of purified p60 at 4° C. for 30 min. After this pre-incubation the reaction mixtures were incubated with ^32P-labeled 26 base pair ARE (Rennie et al., 1993) (androgen response element), and analyzed by gel retardation assay. The sequence of the ARE used was [SEQ ID NO:28]:
Amino acids in the KXFFX^1R [SEQ ID NO: 1] sequence were modified. Androgen receptor and calreticulin were incubated in the presence of the modified peptides and allowed to interact with an oligonucleotide containing the androgen response element (the method of this assay is described in Example 3). The interaction was analyzed by gel mobility shaft assay (FIGS. 5A-5C).

| Substance | Effectiveness of binding to calreticulin, in words | other results |
| --- | --- | --- |
| KGFFGR [compound 416] | decreased the ability of peptides to bind calreticulin | – |
| KGFFKG [compound 417] | decreased the ability of peptides to bind calreticulin | – |
| KGFRKR [compound 415] | increased the effectiveness of binding to calreticulin | – |
| KGFRRR [compound 421] | increased the effectiveness of binding to calreticulin | – |
| KGRFKR [compound 414] | increased the effectiveness of binding to calreticulin | – |
| KGRFRR [compound 420] | increased the effectiveness of binding to calreticulin | – |
| KVAFKR (not fully specified) [compound 427] | decreased the ability of peptides to bind calreticulin | – |
| KVFAKR [compound 429] | decreased the ability of peptides to bind calreticulin | – |
| KVFFKA [compound 430] | decreased the ability of peptides to bind calreticulin | – |
| KVFFKR [compound 285] | – | Reversal of GST-calreticulin (recombinant calreticulin) inhibition of AR-ARE interaction (calreticulin 2 μg, peptides at 50-fold molar excess): can also reverse the inhibition; also recorded: reversed; Reversal of p60 (calreticulin) inhibition of AR-ARE binding (peptide, antibody or IgG pre-incubated with p60): reversed |
| bovine serum albumin: other protein of similar size, used as control [reference compound] | – | Effect of protein on AR-ARE (receptor-DNA) complex formation (protein pre-incubated with AR 30 min at 4° C.): did not have any effect on the nuclear receptor-DNA interaction |
